From US20140134183A1 (CELL MEDICA SWITZERLAND, published 2014) come the findings set out here.

Assay [1] deals with recombinant human IL-1 beta (human, UniProt P01584 117-269). Briefly: cell-based or functional assay.
Another assay addresses T1, swine IL-1 beta (swine, UniProt P26889 115-267, limits assumed).
T1 construct: Bought protein; also called porcine IL-1 beta
T1 sequence (looked up): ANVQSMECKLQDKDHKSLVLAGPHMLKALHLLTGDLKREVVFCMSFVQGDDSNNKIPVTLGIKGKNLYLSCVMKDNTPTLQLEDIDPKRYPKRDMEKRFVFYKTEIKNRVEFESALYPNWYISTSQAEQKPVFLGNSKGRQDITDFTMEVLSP
Briefly: ELISA, IL-1 beta coated at 2 mcg/ml, Protein L-HRP detection. From the text: (§1) Binding to the recombinantly expressed IL-1 beta proteins of the following species was investigated: cynomolgus (Sino Biological Inc., USA, cat. no. 90010-CNAE), rhesus macaque (R&D Systems, USA, cat. no. 1318-RL/CF), swine (Kingfisher Biotech, USA, cat. no. RP0297S-025), canine (Kingfisher Biotech, USA, cat. no. RP0085D-025), guinea pig (Kingfisher Biotech, cat. no. RP0343GP-025), rat (Peprotech, cat. no. 400-01B) and mouse (BioLegend, cat. no. 575102). […] Briefly, proteins were coated at a concentration of 2 mcg/ml over night at 4° C. on Maxisorp 96-well microplates in PBS. […] The ELISA was developed with BM Blue POD substrate (Roche Applied Science) and the absorbance was measured at 450 nm.

Another assay deals with T2, canine IL-1 beta (canine, UniProt Q28292 115-266, limits assumed).
T2 construct: Bought protein
T2 sequence (looked up): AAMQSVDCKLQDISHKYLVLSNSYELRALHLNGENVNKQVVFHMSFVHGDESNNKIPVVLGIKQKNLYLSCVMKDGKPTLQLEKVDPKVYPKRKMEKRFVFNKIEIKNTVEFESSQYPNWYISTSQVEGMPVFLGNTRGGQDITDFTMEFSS
Described as above.
Source text: as §1

A further assay has as its target T3, guinea pig IL-1 beta (guinea pig, UniProt Q9WVG1 115-266).
T3 construct: Bought protein
T3 sequence: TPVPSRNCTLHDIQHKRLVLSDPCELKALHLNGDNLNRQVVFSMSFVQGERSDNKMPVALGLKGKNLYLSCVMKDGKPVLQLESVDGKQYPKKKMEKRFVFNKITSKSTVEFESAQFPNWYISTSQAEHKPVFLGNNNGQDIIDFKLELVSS
The description is as above.
Source text: as §1

A further assay has as its target T4, mouse IL-1 beta (mouse, UniProt P10749 118-269).
T4 construct: Bought protein
The assay is described as above.
Source text: as §1

The next assay has as its target T5, rhIL-1ra (human, UniProt P18510 26-177).
T5 construct: Bought protein; also called rhIL-1 receptor antagonist; IL-1 beta receptor antagonist
The experiment in a line: ELISA, cytokine coated, carried out essentially as for the species orthologs. The protocol:
(§2) Briefly, proteins were coated at a concentration of 2 mcg/ml over night at 4° C. on Maxisorp 96-well microplates in PBS. […] The ELISA was developed with BM Blue POD substrate (Roche Applied Science) and the absorbance was measured at 450 nm.
(§3) In the applied ELISA assay the following antibodies served as positive controls: biotin anti-human IL-1ra (BioLegend, cat. no. 509501), biotin anti-human IL-1 alpha (BioLegend, cat. no. 515703), anti-human IL-18 polyclonal antibody (BioVision, cat. no. 5179-100), biotin anti-human IL-33 antibody (Peprotech, cat. no. 500-P261Bt), anti-human TNF alpha scFv DLX105 (Delenex propriety antibody described in WO 2006/131013 A), biotin anti-human IL-6 (R&D systems, DY206, cat. no. 840114), anti-human IL-36ra (R&D systems, cat. no. AF1275). The ELISA was carried out essentially as described above.
A general note: In an ELISA, binding on a coated surface is turned into a signal by an enzyme label.

The target of a further assay is T6, rhIL-1 alpha (human, UniProt P01583 113-271).
T6 construct: Bought protein
T6 sequence (looked up): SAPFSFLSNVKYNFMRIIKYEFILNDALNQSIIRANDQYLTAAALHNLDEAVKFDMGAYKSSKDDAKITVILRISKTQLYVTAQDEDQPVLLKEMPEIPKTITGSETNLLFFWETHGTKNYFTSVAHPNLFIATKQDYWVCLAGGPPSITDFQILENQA
Described as above. The protocol: as §2, §3

A further assay addresses T7, rhIL-18 (human, UniProt Q14116 37-193).
T7 construct: Bought protein
Described as above. The protocol:
as §2, §3

The target of another assay is T8, rhIL-33 (human, UniProt O95760 112-270).
T8 construct: Bought protein
T8 sequence (looked up): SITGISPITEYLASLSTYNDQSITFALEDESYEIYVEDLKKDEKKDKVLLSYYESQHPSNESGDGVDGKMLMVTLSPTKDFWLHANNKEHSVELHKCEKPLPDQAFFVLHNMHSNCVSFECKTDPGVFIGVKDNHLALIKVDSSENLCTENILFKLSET
Described as above. The protocol:
as §2, §3

In the next assay the target is T9, IL-36ra (human, UniProt Q9UBH0 2-155).
T9 construct: Bought protein
T9 sequence (looked up): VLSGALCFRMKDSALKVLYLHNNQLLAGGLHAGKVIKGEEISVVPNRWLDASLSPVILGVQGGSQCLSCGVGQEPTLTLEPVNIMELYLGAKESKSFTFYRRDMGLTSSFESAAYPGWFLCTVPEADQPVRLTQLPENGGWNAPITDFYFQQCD
The description is as above. As to the method: as §2, §3

In a further assay the target is T10, rhTNF alpha (human, UniProt P01375 77-233).
T10 construct: Bought protein
The assay is described as above. The protocol:
as §2, §3

The target in the next assay is T11, rhIL-6 (human, UniProt P05231 30-212).
T11 construct: Bought protein
The assay is described as above. The protocol: as §2, §3

A further assay concerns the target T12, rat IL-1 beta (rat, UniProt Q63264 117-268).
T12 construct: Bought protein
Briefly: ELISA, IL-1 beta coated at 2 mcg/ml, DLX2323 0.1 to 1.0 mcg/ml, Protein L-HRP detection.
Source text: as §1

The next assay deals with T13, cynomolgus IL-1 beta (cynomolgus, UniProt P79182 117-268).
T13 construct: Bought protein
The assay is described as above.
Source text: as §1

A further assay addresses T14, rhesus macaque IL-1 beta (rhesus macaque, UniProt P48090 117-269).
T14 construct: Bought protein; also called rhesus monkey IL-1 beta
The description is as above.
Source text: as §1

“And” between values parts separate entries of the source, which are not always exact repeats. Identical values can stand only once.

T10 sequence (P01375 77-233): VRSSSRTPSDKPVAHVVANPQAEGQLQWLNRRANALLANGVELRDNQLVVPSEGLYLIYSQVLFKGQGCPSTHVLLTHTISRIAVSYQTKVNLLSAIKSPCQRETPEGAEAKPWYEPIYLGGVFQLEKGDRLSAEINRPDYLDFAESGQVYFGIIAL
T11 sequence (P05231 30-212 limits assumed): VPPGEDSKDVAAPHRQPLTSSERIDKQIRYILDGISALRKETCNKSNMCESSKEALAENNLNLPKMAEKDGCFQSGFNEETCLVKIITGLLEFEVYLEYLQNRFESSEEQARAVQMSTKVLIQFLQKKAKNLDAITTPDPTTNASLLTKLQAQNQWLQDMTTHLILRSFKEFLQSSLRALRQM
T14 sequence (P48090 117-269 limits assumed): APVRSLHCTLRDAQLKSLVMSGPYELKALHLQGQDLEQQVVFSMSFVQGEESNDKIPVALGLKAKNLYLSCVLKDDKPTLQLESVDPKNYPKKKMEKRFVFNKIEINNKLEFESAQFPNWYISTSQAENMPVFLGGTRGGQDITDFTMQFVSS
T13 sequence (P79182 117-268 limits assumed): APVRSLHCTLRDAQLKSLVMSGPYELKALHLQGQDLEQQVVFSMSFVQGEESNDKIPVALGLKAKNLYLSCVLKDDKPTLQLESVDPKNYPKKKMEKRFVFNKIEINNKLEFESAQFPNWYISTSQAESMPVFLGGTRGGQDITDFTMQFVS
T5 sequence (P18510 26-177): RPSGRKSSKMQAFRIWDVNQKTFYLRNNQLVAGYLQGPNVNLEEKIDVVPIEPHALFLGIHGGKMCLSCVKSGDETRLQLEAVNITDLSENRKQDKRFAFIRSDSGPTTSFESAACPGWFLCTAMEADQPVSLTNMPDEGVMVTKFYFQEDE
T12 sequence (Q63264 117-268 limits assumed): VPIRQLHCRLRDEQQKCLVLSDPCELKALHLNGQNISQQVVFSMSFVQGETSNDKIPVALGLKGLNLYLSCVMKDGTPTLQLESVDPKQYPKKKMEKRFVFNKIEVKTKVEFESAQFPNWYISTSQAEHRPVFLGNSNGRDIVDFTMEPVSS
T4 sequence (P10749 118-269 limits assumed): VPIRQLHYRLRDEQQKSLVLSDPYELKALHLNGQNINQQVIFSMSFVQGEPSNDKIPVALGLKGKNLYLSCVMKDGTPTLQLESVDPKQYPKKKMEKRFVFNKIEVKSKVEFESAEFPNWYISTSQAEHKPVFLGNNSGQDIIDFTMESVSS

B1: DLX2323 (scFv)
scFv: EIVMTQSPSTLSASVGDRVIITCQASQSIDNWLSWYQQKPGKAPKLLIYRASTLASGVPSRFSGSGSGAEFTLTISSLQPDDFATYYCQNTGGGVSIAFGQGTKLTVLGGGGGSGGGGSGGGGSGGGGSEVQLVESGGGLVQPGGSLRLSCTASGFSLSSAAMAWVRQAPGKGLEWVGIIYDSASTYYASWAKGRFTISRDTSKNTVYLQMNSLRAEDTAVYYCARERAIFSGDFVLWGQGTLVTVSS
notes: also called scFv DLX2323; parental scFv
For the molecule B1, the “IC50 of IL-1 beta-induced IL-6 release from human dermal fibroblasts” value in assay [1] is 3 pM and 0.002 nM to 0.004 nM (2×). Moreover, the binding result in the assay with swine IL-1 beta was “no binding (tested: 1.0 mcg/ml)”; with canine IL-1 beta, “no binding (tested: 1.0 mcg/ml)”; with guinea pig IL-1 beta, “no binding (tested: 1.0 mcg/ml)”; in the assay with mouse IL-1 beta, “no binding (tested: 1.0 mcg/ml)”; with rhIL-1ra, “no binding”; in the assay with rhIL-1 alpha, “no binding”. Further, the binding result in the assay with rhIL-18 is “no binding”; with rhIL-33, “no binding”; with IL-36ra, “no binding”; in the assay with rhTNF alpha it was “no binding”; with rhIL-6, “no binding”; with rat IL-1 beta, “binds”. The binding result with cynomolgus IL-1 beta and with rhesus macaque IL-1 beta was “binds” in each case.
